Data taken from patent EP0622394A1, “Reversible modification of sulfur-containing molecules with polyalkylene glycol derivatives and their use” (S.A. LABORATOIRES S.M.B., priority 1993, dated 1994).

Assays:
[1] = Acid denaturation: residual amidase activity after incubation in acidic buffer; format: physicochemical; settings: 40 µM proteinase, 25°C
Protocol: Indeed : • 1. […] Similar results were obtained in the case of papain.
Time course dependence of acid denaturation of S-methylthio PP III (---) and S-pegyl (5000) thio PP III (―) at various pH and at 25°C.
At various time intervals, aliquot were removed and assayed for residual amidase activity using the assay method N° 3.

[2] = Infrared spectroscopy (Fourier self-deconvolution, curve fitting of the amide I region): content of secondary structures; format: physicochemical; settings: FTIR amide I region; counter-ions K+ and Cl-; pH 5.0
Protocol: Spectra were recorded with a Perkin-Elmer infrared spectrometer 983 G equipped with a Perkin-Elmer microspecular reflectance accessory (ref. P.E. 221-0357). The internal reflection element was a Germanium ATR plate (50 x 20 x 2 mm, Harrick EJ 2121) with an aperture angle of 45° yielding 25 […] reflections. The mean stan rate was 15.5 cm⁻¹/minute and up to 20 accumulations were performed when necessary to improve the signal to noise ratio. The spectrophotometer was continuously purged with air dried on a silica gel column (5 x 130 cm) at a flow rate of 7 l/minute. Spectra were recorded at a nominal resolution of 2 cm⁻¹ and encoded every 0.5 cm⁻¹. At the end of the scan, they are transferred from the memory of the spectrophotometer to an Olivetti M 40 itself coupled to an Olivetti M 24 computer Spectra were Fourier transformed and stored for subsequent treatments.
In both cases the S-pegylated protein eluted from the CM-Sephadex C-50 before the irreversibly oxidized material. […] Indeed : 1. […] The proportions of the different secondary structures were determined, as previously described by Cabiaux et al, 1989, J. Biol. Chem., 264:4928-4938, using the frequency regions for the different structures as follows : 1661-1647 cm⁻¹ : α-helix; 1689-1682 + 1637-1615 cm⁻¹ : β-sheet; 1644.5-1637.7 cm⁻¹ : random and 1682-1661 cm⁻¹ : β-turn. […]

S-Pegylated Papaya Pectinase III: papaya proteinase III S-pegylated with PEG 5 kDa disulfide derivative
lowest pH at which solutions remain stable (acid denaturation) [1]: 2.6
PERCENTAGE OF Random [2]: 8.3
PERCENTAGE OF α-Helix [2]: 27.9
PERCENTAGE OF β-Sheet [2]: 36.1
PERCENTAGE OF β-Turns [2]: 27.7

B1: S-Pegylated papain: papain modified at its thiol with a 5 kDa PEG chain through a disulfide bond (conjugate, UniProt P00784 134-345, looked up)
Papain: IPEYVDWRQKGAVTPVKNQGSCGSCWAFSAVVTIEGIIKIRTGNLNEYSEQELLDCDRRSYGCNGGYPWSALQLVAQYGIHYRNTYPYEGVQRYCRSREKGPYAAKTDGVRQVQPYNEGALLYSIANQPVSVVLEAAGKDFQLYRGGIFVGPCGNKVDHAVAAVGYGPNYILIKNSWGTGWGENGYIRIKRGTGNSYGVCGLYTSSFYPVKN
modifications: S-PEG 5 kDa
notes: papain modified at its thiol with a 5 kDa PEG chain through a disulfide bond
PERCENTAGE OF Random [2]: 8.2
PERCENTAGE OF α-Helix [2]: 28.2
PERCENTAGE OF β-Turns [2]: 27.0
